The values below come from publication PMC10952841, “Biocatalytic synthesis of 2′‐deoxynucleotide 5′‐triphosphates from bacterial genomic DNA: Proof of principle” (Biotechnology and Bioengineering, 2023).

This data set deals with T1, Nc1ncnc2c1ncn2[C@H]1C[C@H](O)[C@@H](COP(=O)(O)O)O1.
T1 construct: C-terminal 6x His tag (pET24a), kept; E. coli BL21(DE3) host; Ni-NTA
Nature of the data set: purified protein. The conditions noted are these: 2 mM ATP, 10 mM Mg acetate, 50 mM K acetate, 20 mM Tris-acetate, 37°C, three protein batches (N = 3). The class given is biochemical, Escherichia coli.

What is called Km is the substrate concentration at which the rate is half of its maximum. In general, Vmax refers to the rate approached at saturating substrate. With “adenylate kinase (adk) (Escherichia coli K-12)”, the Km turned out to be 359 ± 84 µM and the Vmax stood at 47.9 µmol/min/mg.
